Target: LetA (UniProt Q8KQL1 1-219)
Assay: EMSA

B1: rsmY upstream 35mer (dsDNA)
DNA 1: CTCTTCTTAATTGAGAAATTTCTTACATATTACTGC
DNA 2: GCAGTAATATGTAAGAAATTTCTCAATTAAGAAGAG
Question: Does B1 bind?
Answer: binds

B2: rsmZ upstream 35mer (dsDNA)
DNA 1: GTAATTGATGTAAGAAATTTCTCAATTCCATAGA
DNA 2: TCTATGGAATTGAGAAATTTCTTACATCAATTAC
Question: Does B2 bind?
Answer: binds

Reference: publication PMC2888818
